{
  "source": "paper PMC3397946",
  "about": "“Identification and Characterization of the Cognate Anti-Sigma Factor and Specific Promoter Elements of a T. tengcongensis ECF Sigma Factor”",
  "binders": {"B1": {"name": "D-5-b7t/-12 (-7T to G) (dsDNA)", "DNA 1": "TGTTACCTTTTGTGTAGATTTTCGTCTAGAAAGGTG", "DNA 2": "CGAAAATCTACACAAAAGGTAACA"}, "B2": {"name": "D-5-B1C (-13C to T) (dsDNA)", "DNA 1": "TGTTACCTTTTGTGTAGATTTTTGTCTATAAAGGTG", "DNA 2": "CAAAAATCTACACAAAAGGTAACA"}, "B3": {"name": "D-5-B2G (-12G to T) (dsDNA)", "DNA 1": "TGTTACCTTTTGTGTAGATTTTCTTCTATAAAGGTG", "DNA 2": "AGAAAATCTACACAAAAGGTAACA"}, "B4": {"name": "D-5/-10 (dsDNA)", "DNA 1": "TGTTACCTTTTGTGTAGATTTTCGTCTATAAAGGTG", "DNA 2": "GACGAAAATCTACACAAAAGGTAACA"}, "B5": {"name": "D-5-M5 (-32TACC-29 to GGTT) (dsDNA)", "DNA 1": "TGTGGTTTTTTGTGTAGATTTTCGTCTATAAAGGTG", "DNA 2": "GACGAAAATCTACACAAAAAACCACA"}, "B6": {"name": "T+1/B-10 (dsDNA)", "DNA 1": "GGTATTGTTACCTTTTGTGTAGATTTTCGTCTATAAAGGTG", "DNA 2": "GACGAAAATCTACACAAAAGGTAACAATACC"}, "B7": {"name": "T+1/B-12 (dsDNA)", "DNA 1": "GGTATTGTTACCTTTTGTGTAGATTTTCGTCTATAAAGGTG", "DNA 2": "CGAAAATCTACACAAAAGGTAACAATACC"}, "B8": {"name": "D-5-BM4 (-9TATA-6 to CCCC) (dsDNA)", "DNA 1": "TGTTACCTTTTGTGTAGATTTTCGTCCCCCAAGGTG", "DNA 2": "CGAAAATCTACACAAAAGGTAACA"}},
  "key": {"[1]": {"molecular_target": "T1, Tt-RpoE1 (Thermoanaerobacter tengcongensis MB4T, UniProt Q8RCT7 1-162)", "T1 sequence": "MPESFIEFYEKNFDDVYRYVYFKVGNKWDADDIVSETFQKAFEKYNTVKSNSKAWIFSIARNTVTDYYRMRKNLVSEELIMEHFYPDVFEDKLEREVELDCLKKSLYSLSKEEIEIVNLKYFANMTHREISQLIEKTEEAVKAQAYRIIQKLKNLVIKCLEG", "assay": "EMSA; 5 uM protein; little effect; 50 mM Tris-HCl pH 8.0, 10 mM MgAc2, 30 mM NaCl, 1 mM DTT, 5% glycerol, 30 ug/ml BSA, 0.5 mM EDTA, 1 ug poly(dI-dC), 20 fmol probe in 20 ul, 25 C, 20 min", "settings": "protein: recombinant; tags: His (pET28a); label: 5'-32P top strand; fork: top 3' overhang 12 nt"}, "[2]": {"molecular_target": "T2, Tt-RpoE1 D66A (Thermoanaerobacter tengcongensis MB4T, UniProt Q8RCT7 1-162, D66A)", "T2 sequence": "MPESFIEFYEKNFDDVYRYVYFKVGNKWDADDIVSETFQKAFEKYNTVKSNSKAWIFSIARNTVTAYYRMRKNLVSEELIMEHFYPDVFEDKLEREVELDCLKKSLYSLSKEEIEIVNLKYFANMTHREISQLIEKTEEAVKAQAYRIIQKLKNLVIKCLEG", "assay": "EMSA; 5 uM protein; D66A cures -12G defect; 50 mM Tris-HCl pH 8.0, 10 mM MgAc2, 30 mM NaCl, 1 mM DTT, 5% glycerol, 30 ug/ml BSA, 0.5 mM EDTA, 1 ug poly(dI-dC), 20 fmol probe in 20 ul, 25 C, 20 min", "settings": "protein: recombinant; tags: His (pET28a); label: 5'-32P top strand; fork: top 3' overhang 12 nt"}, "[3]": {"molecular_target": "T1, Tt-RpoE1", "assay": "EMSA; 5 uM protein; 50 mM Tris-HCl pH 8.0, 10 mM MgAc2, 30 mM NaCl, 1 mM DTT, 5% glycerol, 30 ug/ml BSA, 0.5 mM EDTA, 1 ug poly(dI-dC), 20 fmol probe in 20 ul, 25 C, 20 min", "settings": "protein: recombinant; tags: His (pET28a); label: 5'-32P top strand; fork: top 3' overhang 10 nt"}, "[4]": {"molecular_target": "T1, Tt-RpoE1", "assay": "EMSA; 5 uM protein; abolition; 50 mM Tris-HCl pH 8.0, 10 mM MgAc2, 30 mM NaCl, 1 mM DTT, 5% glycerol, 30 ug/ml BSA, 0.5 mM EDTA, 1 ug poly(dI-dC), 20 fmol probe in 20 ul, 25 C, 20 min", "settings": "protein: recombinant; tags: His (pET28a); label: 5'-32P top strand; fork: top 3' overhang 10 nt"}, "[5]": {"molecular_target": "T3, Tt-RpoE1;Tt-TolB (Thermoanaerobacter tengcongensis …, UniProt Q8RCT7;Q8RCT8 1-162;1-645, |)", "T3 sequence 1": "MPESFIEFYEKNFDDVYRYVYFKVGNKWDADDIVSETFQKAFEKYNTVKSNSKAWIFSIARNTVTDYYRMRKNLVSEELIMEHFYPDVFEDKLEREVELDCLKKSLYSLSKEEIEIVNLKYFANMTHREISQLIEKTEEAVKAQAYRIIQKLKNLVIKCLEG", "T3 sequence 2": "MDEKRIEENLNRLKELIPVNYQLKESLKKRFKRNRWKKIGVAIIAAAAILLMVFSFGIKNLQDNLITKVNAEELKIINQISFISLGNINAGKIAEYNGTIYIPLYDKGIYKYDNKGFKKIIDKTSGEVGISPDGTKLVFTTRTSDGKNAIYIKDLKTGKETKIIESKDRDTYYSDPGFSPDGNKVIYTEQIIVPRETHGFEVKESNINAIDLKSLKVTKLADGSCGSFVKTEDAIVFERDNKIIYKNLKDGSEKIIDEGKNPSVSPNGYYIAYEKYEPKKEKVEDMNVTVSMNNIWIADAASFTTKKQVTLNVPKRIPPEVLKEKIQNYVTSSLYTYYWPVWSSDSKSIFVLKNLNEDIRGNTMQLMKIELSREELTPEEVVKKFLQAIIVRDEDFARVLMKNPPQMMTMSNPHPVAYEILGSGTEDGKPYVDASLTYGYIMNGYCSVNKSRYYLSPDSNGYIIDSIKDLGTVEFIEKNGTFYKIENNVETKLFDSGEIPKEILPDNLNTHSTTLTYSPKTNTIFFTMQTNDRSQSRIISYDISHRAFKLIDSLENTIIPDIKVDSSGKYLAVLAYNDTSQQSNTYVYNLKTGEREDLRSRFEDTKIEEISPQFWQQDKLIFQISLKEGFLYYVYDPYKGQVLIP", "assay": "EMSA; 5 uM each; supershifted complex; 50 mM Tris-HCl pH 8.0, 10 mM MgAc2, 30 mM NaCl, 1 mM DTT, 5% glycerol, 30 ug/ml BSA, 0.5 mM EDTA, 1 ug poly(dI-dC), 20 fmol probe in 20 ul, 25 C, 20 min", "settings": "protein: recombinant;recombinant; tags: His (pET28a);His (pET28a); label: 5'-32P top strand; fork: top 3' overhang 10 nt"}, "[6]": {"molecular_target": "T4, Tt-TolB (Thermoanaerobacter tengcongensis MB4T, UniProt Q8RCT8 1-645)", "T4 sequence": "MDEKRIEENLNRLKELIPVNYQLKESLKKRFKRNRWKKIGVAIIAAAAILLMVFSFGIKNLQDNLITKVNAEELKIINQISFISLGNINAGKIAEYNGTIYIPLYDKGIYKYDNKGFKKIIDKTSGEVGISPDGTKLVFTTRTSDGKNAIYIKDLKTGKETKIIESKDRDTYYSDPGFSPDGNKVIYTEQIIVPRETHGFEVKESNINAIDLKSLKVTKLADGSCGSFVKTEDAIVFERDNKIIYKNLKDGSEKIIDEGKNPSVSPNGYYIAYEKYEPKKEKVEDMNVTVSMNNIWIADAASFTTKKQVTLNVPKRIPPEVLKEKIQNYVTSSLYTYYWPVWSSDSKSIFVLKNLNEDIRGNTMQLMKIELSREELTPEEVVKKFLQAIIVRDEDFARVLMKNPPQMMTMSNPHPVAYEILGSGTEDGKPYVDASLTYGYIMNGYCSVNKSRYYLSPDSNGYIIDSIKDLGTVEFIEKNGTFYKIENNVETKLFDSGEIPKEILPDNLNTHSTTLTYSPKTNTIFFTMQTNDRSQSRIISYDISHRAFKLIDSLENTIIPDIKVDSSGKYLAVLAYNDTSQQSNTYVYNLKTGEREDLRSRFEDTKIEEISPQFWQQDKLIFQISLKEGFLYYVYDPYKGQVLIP", "assay": "EMSA; 5 uM, alone; 50 mM Tris-HCl pH 8.0, 10 mM MgAc2, 30 mM NaCl, 1 mM DTT, 5% glycerol, 30 ug/ml BSA, 0.5 mM EDTA, 1 ug poly(dI-dC), 20 fmol probe in 20 ul, 25 C, 20 min", "settings": "protein: recombinant; tags: His (pET28a); label: 5'-32P top strand; fork: top 3' overhang 10 nt"}, "[7]": {"molecular_target": "T5, Tt-TolB-C (Thermoanaerobacter tengcongensis MB4T, UniProt Q8RCT8 62-645)", "T5 sequence": "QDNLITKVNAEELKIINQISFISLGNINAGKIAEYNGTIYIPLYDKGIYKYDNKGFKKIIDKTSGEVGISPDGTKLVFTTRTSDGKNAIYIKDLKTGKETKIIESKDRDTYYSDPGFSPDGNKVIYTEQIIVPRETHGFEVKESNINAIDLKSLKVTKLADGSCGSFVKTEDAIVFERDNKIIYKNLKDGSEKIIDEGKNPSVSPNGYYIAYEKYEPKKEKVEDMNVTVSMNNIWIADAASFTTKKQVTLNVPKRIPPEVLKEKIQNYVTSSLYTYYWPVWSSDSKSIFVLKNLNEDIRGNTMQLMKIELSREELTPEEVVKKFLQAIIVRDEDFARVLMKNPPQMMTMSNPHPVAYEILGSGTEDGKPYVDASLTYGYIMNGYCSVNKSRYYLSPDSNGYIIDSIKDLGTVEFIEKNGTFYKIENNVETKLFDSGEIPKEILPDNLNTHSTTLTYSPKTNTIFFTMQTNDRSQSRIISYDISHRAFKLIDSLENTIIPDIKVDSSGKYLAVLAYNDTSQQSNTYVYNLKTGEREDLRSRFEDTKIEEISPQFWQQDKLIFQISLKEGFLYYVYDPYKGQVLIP", "assay": "EMSA; 5 uM, alone; 50 mM Tris-HCl pH 8.0, 10 mM MgAc2, 30 mM NaCl, 1 mM DTT, 5% glycerol, 30 ug/ml BSA, 0.5 mM EDTA, 1 ug poly(dI-dC), 20 fmol probe in 20 ul, 25 C, 20 min", "settings": "protein: recombinant; tags: His (pET28a); label: 5'-32P top strand; fork: top 3' overhang 10 nt"}, "[8]": {"molecular_target": "T1, Tt-RpoE1", "assay": "EMSA; 5 uM protein; strongest; 50 mM Tris-HCl pH 8.0, 10 mM MgAc2, 30 mM NaCl, 1 mM DTT, 5% glycerol, 30 ug/ml BSA, 0.5 mM EDTA, 1 ug poly(dI-dC), 20 fmol probe in 20 ul, 25 C, 20 min", "settings": "protein: recombinant; tags: His (pET28a); label: 5'-32P top strand; fork: top 3' overhang 12 nt"}},
  "data": [
    {"binder": "B1", "values": [
      {"measurement": "binding result", "setting": "[1]", "result": "binds"}
    ]},
    {"binder": "B2", "values": [
      {"measurement": "binding result", "setting": "[1]", "result": "binds"}
    ]},
    {"binder": "B3", "values": [
      {"measurement": "binding result", "setting": "[2]", "result": "binds"}
    ]},
    {"binder": "B4", "values": [
      {"measurement": "binding result", "setting": "[3]", "result": "binds"}
    ]},
    {"binder": "B5", "values": [
      {"measurement": "binding result", "setting": "[4]", "result": "no binding"}
    ]},
    {"binder": "B6", "values": [
      {"measurement": "binding result", "setting": "[3]", "result": "binds"},
      {"measurement": "binding result", "setting": "[5]", "result": "binds"},
      {"measurement": "binding result", "setting": "[6]", "result": "no binding"},
      {"measurement": "binding result", "setting": "[7]", "result": "no binding"}
    ]},
    {"binder": "B7", "values": [
      {"measurement": "binding result", "setting": "[8]", "result": "binds"}
    ]},
    {"binder": "B8", "values": [
      {"measurement": "binding result", "setting": "[1]", "result": "binds"}
    ]}
  ]
}
